pIC50, pKd: −log10 of the molar value.
How the values were obtained:
Survivin142-HA (human) = Survivin142-HA (human) (UniProt O15392); assay: pull-down; competition in the pull-down of a5: 293T lysate with Survivin142-HA preincubated 1 h with 10 nM to 200 µM tweezer conjugate before GST-CRM1, RanQ69L and dGTP
[1] = target: Atto488-labeled Survivin120 (human) (UniProt O15392); assay: fluorescence polarisation; fluorescence anisotropy competition; Atto488-Survivin120 preincubated with CRM1_1-1062VLV430AAA at 1:5, titrated with tweezers to approx. 180 µM; PBS pH 7.4, 25 °C; n = 1
Atto488-labeled Survivin120 (human), sequence (O15392 1-120): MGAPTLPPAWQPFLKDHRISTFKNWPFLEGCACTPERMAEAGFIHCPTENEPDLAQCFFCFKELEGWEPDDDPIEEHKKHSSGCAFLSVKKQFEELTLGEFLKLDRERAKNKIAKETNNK

[2] = target: TW-ELTL (asymmetrical molecular tweezer linked to the short peptide ELTL) (human); assay: ITC; tweezer conjugate (100 µM) in the cell, Survivin120 (1.2 mM WT or 2.5 mM K90/103T) in the syringe; PBS pH 7.4, 25 °C; one set of sites model
[3] = target: TW-ELTLGEFL (asymmetrical molecular tweezer linked to the elongated peptide ELTLGEFL) (human); assay: as above
TW-ELTL-FAM (human) = assay: fluorescence polarisation; fluorescence anisotropy; 200 nM FAM-labeled tweezer titrated with Survivin120 (to 180 µM) or K90/103T (to 350 µM); PBS pH 7.4, 25 °C; single-site model
TW-ELTLGEFL-FAM (human) = assay: as above

Survivin142-HA (human), sequence (O15392 whole entry): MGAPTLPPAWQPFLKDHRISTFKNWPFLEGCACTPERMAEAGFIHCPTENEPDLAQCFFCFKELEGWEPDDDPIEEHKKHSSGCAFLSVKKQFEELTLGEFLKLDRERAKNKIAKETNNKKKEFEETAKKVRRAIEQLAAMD

Row | Substance | concentration required to disrupt the Survivin–CRM1 complex (Survivin142-HA (human)) [µM] | pIC50 [1] | pKd [2] | stoichiometry N (ligand/protein) [2] | pKd [3] | stoichiometry N (ligand/protein) [3] | pKd (TW-ELTL-FAM (human)) | pKd (TW-ELTLGEFL-FAM (human))
1 | TW-ELTL (asymmetrical molecular tweezer linked to the short peptide ELTL) | 10 to 50 | 4.41 | – | – | – | – | – | –
2 | Survivin120 K90/103T (from UniProt O15392 1-120) (domain or fragment) | – | – | 4.30 | 1 | 4.44 | 1 | 3.62 | 4.04

Source: article PMC7940618, “Specific inhibition of the Survivin–CRM1 interaction by peptide-modified molecular tweezers” (Nature Communications, 2021)
